This is an account of results in article PMC3407194.

Common to all, as to assay: primer extension with trap
Common to all, as to conditions: Primer extension: 50 mM Tris-HCl pH 8.0, 80 mM KCl, 6 mM MgCl2, 1 mM DTT, 0.1 mg/ml BSA, room temperature, 1 nM duplex; filter binding: Tris-HCl pH 8.0, 80 mM …

Data set [1] deals with T1, Ty3 RT (Ty3 retrotransposon) (UniProt Q99315).
T1 sequence: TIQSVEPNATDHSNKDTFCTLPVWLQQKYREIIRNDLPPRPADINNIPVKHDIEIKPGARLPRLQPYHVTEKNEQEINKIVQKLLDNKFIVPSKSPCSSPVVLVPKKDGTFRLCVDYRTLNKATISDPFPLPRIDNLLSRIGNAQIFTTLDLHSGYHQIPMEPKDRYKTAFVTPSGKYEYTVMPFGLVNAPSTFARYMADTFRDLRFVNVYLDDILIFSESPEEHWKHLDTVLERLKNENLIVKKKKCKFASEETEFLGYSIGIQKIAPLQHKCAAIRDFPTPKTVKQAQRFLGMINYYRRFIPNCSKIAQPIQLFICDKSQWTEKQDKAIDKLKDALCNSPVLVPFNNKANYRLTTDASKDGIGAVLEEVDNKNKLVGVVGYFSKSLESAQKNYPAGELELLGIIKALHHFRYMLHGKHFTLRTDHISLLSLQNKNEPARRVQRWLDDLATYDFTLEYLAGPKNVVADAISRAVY

For data set [2], the target named is T2, AMV RT (avian myeloblastosis virus) (UniProt Q83133+Q83133).
T2 sequence 1: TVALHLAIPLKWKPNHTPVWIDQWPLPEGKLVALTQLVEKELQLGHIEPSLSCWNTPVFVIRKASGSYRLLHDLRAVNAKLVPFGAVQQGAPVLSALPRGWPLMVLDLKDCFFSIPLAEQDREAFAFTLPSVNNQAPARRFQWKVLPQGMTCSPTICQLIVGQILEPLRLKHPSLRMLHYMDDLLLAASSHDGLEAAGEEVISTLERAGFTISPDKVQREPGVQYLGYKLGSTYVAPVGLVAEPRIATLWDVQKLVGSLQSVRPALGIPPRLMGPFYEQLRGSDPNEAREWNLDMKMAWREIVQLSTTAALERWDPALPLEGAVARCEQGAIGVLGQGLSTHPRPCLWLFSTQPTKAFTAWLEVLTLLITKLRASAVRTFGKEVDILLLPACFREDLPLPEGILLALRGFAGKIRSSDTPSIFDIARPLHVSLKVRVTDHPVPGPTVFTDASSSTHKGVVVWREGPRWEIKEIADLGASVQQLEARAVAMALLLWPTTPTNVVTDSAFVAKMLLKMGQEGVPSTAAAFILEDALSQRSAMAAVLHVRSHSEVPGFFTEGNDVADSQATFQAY
T2 sequence 2: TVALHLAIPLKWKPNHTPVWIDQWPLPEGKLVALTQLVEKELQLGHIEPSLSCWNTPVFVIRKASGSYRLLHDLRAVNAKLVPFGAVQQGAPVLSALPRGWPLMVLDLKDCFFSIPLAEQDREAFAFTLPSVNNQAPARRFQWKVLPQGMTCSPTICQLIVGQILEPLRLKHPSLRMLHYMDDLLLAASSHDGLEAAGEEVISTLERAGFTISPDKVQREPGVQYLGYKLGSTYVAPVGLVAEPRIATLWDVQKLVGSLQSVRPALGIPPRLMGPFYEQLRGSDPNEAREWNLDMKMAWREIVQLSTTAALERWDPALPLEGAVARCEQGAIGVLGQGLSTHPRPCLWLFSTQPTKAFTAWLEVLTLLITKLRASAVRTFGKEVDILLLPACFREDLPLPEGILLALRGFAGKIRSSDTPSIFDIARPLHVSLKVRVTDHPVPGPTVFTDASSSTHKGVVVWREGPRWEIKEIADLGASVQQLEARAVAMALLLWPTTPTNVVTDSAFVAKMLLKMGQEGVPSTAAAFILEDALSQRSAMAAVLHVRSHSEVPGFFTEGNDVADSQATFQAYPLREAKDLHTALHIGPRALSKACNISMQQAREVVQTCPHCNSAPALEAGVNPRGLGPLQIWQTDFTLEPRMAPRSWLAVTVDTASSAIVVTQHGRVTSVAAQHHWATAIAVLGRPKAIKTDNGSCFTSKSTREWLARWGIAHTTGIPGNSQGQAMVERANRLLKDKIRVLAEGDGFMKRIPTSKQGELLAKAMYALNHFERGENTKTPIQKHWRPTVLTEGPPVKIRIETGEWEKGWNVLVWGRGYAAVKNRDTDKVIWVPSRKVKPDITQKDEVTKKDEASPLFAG

The target in a further data set is HIV RT (HIV) (UniProt P04585+P04585).
In data set [3] the target is MuLV RT (Moloney murine leukemia virus) (UniProt P03355).

For the substance Random DNA, the Kd in data set [1] came to 0.062 µM; in data set [2], 0.02 µM; with HIV RT (HIV) it was 0.106 µM; in data set [3], 0.116 µM.
